IC50 data for one substance are collected here from article PMC2939854 (2010).

The target of the assay is GLP-1 receptor (Rattus norvegicus) (UniProt P32301). Briefly: competitive cellular ELISA against GLP-1/hIgG2 (INS-1 cells).
Sequence of GLP-1 receptor (Rattus norvegicus) (P32301 22-463): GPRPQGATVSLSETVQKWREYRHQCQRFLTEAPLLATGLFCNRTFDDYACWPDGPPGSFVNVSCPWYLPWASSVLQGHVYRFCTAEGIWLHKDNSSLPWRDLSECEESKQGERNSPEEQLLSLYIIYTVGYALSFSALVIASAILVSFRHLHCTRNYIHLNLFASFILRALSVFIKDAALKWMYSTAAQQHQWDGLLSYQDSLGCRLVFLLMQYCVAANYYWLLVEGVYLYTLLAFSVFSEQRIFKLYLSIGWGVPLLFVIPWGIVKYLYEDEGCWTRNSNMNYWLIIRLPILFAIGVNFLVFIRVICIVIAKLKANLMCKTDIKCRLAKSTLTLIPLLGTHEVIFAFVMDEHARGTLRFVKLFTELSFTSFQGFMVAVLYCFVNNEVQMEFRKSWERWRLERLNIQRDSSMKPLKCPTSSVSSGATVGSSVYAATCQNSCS

Sequence of Exendin-4 (P26349 48-86): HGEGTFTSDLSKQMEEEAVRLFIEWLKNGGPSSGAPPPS

Substance Exendin-4 (from UniProt P26349) returned a concentration for half-maximal inhibition (IC50) of 8.15 nM.
